Kd, koff and kon data for 5 molecules are collected here from article PMC8166844, “The FlhA linker mediates flagellar protein export switching during flagellar assembly” (Communications Biology, 2021).

In test [1] the target is GST-FliJ (Salmonella enterica), P0A1K1. Briefly: BLI; GST-FliJ immobilised on an anti-GST sensor tip (BLItz), His-FlhAC or its variants in solution at various concentrations; kinetic buffer PBS pH 7.4, 0.1% BSA, 0.002% Tween-20; 25 °C; wild type fitted with a two-state reaction model, FlhAC-EWD and FlhAC-ΔL with the Hill equation; n = 3. The conditions noted are these: remark: other sources report otherwise.
GST-FliJ (Salmonella enterica), P0A1K1, sequence (P0A1K1 whole entry): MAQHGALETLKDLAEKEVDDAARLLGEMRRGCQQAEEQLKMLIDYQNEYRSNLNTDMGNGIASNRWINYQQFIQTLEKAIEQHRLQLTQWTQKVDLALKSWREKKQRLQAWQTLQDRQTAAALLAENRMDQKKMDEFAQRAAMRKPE

For test [2], the target named is T1, GST-FlgN (Salmonella enterica), P0A1J7.
T1 chain: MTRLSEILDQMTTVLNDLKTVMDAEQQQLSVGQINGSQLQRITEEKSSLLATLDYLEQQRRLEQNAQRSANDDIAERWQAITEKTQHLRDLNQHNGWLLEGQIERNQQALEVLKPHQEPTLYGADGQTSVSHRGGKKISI
Put plainly: BLI; GST-FlgN immobilised on an anti-GST sensor tip (BLItz), His-FlhAC or its variants in solution at various concentrations; kinetic buffer PBS pH 7.4, 0.1% BSA, 0.002% Tween-20; 25 °C; FlhAC-ED and FlhAC-EWD fitted with a two-state reaction model, FlhAC-ΔL with a heterogeneous reaction model; n = 3. To be noted: remark: other sources report otherwise. A general note: In BLI a coated tip is dipped into the sample, and binding shifts an interference pattern.

The target in test [3] is T2, His-FlhAC(E351A/W354A/D356A) (Salmonella enterica, UniProt P40729 328-692, E351A | W354A | D356A).
T2 construct: also called FlhAC-EWD; His-FlhAC-EWD
T2 sequence: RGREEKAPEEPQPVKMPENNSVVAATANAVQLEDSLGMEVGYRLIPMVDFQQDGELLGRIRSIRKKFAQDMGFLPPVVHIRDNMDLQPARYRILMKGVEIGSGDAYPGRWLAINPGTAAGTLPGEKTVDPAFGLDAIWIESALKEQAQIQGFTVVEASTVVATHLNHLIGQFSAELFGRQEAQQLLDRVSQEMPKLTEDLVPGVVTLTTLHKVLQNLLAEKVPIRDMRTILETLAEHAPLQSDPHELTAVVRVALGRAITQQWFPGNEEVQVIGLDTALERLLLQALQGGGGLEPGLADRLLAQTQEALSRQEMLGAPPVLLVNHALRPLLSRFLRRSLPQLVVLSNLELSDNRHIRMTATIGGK
The description is as above. To be noted: both partners purified.

In test [4] the target is T3, His-FlhAC (C-terminal cytoplasmic domain of FlhA, residues 328–692), wild type (Salmonella enterica, UniProt P40729 328-692).
T3 construct: also called wild-type FlhAC; WT
T3 sequence: T2 sequence with A24E, A27W, A29D
Described as above. The conditions noted are these: both partners purified.

Test [5] addresses T4, His-FlhAC lacking FlhAL (residues 328–361) (Salmonella enterica, UniProt P40729 362-692).
T4 construct: also called FlhAC-ΔL; His-FlhAC-ΔL
T4 sequence: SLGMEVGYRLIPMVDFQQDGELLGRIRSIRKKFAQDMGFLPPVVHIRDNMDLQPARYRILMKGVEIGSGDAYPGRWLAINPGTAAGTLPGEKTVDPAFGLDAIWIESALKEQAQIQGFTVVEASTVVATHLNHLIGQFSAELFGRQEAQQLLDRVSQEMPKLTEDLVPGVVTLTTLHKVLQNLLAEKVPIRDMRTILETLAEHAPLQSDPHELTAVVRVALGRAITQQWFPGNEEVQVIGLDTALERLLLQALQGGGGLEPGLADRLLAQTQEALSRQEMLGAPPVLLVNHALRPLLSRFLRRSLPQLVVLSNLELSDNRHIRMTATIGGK
Described as above. The conditions noted are these: both partners purified.

Where a chain is given by its changes, count along the chain named. Names may count otherwise.

B1: His-FlhAC (C-terminal cytoplasmic domain of FlhA, residues 328–692), wild type, P40729 328-692 (domain or fragment)
chain: T2 sequence with A24E, A27W, A29D
Consider B1, for which the Kd in test [1] turned out to be 1.36 µM.

B2: His-FlhAC(E351A/W354A/D356A), P40729 328-692 (domain or fragment)
chain: T2 sequence
As to B2, in test [1], the Kd came out at 60.7 µM.

B3: His-FlhAC(E351A/D356A), P40729 328-692 (domain or fragment)
chain: T2 sequence with A27W
B3 gave a Kd in test [2] of 37.8 µM.

B4: GST-FlgN (natural protein)
chain: T1 chain
notes: also called pMMGN101
On to B4, for which the Kd in test [3] amounted to 31.2 µM. Besides, in test [4], binding was put at a Kd of 0.095 µM, the koff was approximately 0.000781 s⁻¹ and the kon was approximately 8230 M⁻¹ s⁻¹. In test [5], this molecule showed a Kd of 3.1 µM.

B5: His-FlhAC lacking FlhAL (residues 328–361), P40729 362-692 (domain or fragment)
chain: T4 sequence
Regarding B5, the dissociation constant (Kd) in test [1] turned out to be 49 µM.

By Kd is commonly meant the free concentration of one partner at which half of the binding sites on the other are occupied at equilibrium, for simple one-to-one binding. Broadly, the koff is the rate constant with which the complex falls apart. The low end stands for a long-lived complex, the high end for a short-lived complex. By kon is commonly meant the second-order rate constant of association. High values mean fast association, low ones slow association.
